Measured values reported in article doi:10.1101/2024.10.13.617916.

Molecular target: KaiB labeled with 6-iodoacetamidofluorescein (KaiB-6IAF) (Synechococcus elongatus) (UniProt Q79PF5)
Test: other fluorescence titration

Chain of UniProt Q79PF5 (Q79PF5 whole entry): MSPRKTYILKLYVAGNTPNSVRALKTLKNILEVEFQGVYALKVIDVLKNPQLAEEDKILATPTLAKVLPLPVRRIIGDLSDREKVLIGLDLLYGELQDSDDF

B1: KaiC (natural protein)
chain: MTSAEMTSPNNNSEHQAIAKMRTMIEGFDDISHGGLPIGRSTLVSGTSGTGKTLFSIQFLYNGIIEFDEPGVFVTFEETPQDIIKNARSFGWDLAKLVDEGKLFILDASPDPEGQEVVGGFDLSALIERINYAIQKYRARRVSIDSVTSVFQQYDASSVVRRELFRLVARLKQIGATTVMTTERIEEYGPIARYGVEEFVSDNVVILRNVLEGERRRRTLEILKLRGTSHMKGEYPFTITDHGINIFPLGAMRLTQRSSNVRVSSGVVRLDEMCGGGFFKDSIILATGATGTGKTLLVSRFVENACANKERAILFAYEESRAQLLRNAYSWGMDFEEMERQNLLKIVCAYPESAGLEDHLQIIKSEINDFKPARIAIDSLSALARGVSNNAFRQFVIGVTGYAKQEEITGLFTNTSDQFMGAHSITDSHISTITDTIILLQYVEIRGEMSRAINVFKMRGSWHDKAIREFMISDKGPDIKDSFRNFERIISGSPTRITVDEKSELSRIVRGVQEKGPES
With B1 the decrease of KaiB-6IAF fluorescence intensity at 3.5 uM KaiC was 60% and the maximal quenching of KaiB-6IAF was 40%.
